This data set concerns the target T1, C-reactive protein (CRP) (human, UniProt P02741 19-224).
T1 sequence: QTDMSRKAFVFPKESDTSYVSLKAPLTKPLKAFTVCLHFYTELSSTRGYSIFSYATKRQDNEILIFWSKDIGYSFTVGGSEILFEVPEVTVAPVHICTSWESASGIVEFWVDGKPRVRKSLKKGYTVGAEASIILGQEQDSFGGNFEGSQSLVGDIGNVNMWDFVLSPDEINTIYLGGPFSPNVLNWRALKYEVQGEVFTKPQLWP
Briefly: competition.

Turning to CGAAGGGGATTCGAGGGGTGATTGCGTGCTCCATTTGGTG (ssDNA, 5'-biotin-(CH2)6) [CRP-aptamer (40-mer)], the binding result is listed as “binds”.

The values above are taken from PMC9073860.
